Sequences and labels used below:
B1: Asp60Ala: SULT1C1 polypeptide having an alanine at amino acid residue 60 in place of aspartic acid (protein)
chain: MALTSDLGKQIKLKEVEGTLLQPATVDNWSQIQSFEAKPDDLLICTYPKAGTTWIQEIVAMIEQNGDVEKCQRAIIQHRHPFIEWARPPQPSGVEKAKAMPSPRILKTHLSTQLLPPSFWENNCKFLYVARNAKDCMVSYYHFQRMNHMLPDPGTWEEYFETFINGKVVWGSWFDHVKGWWEMKDRHQILFLFYEDIKRDPKHEIRKVMQFMGKKVDETVLDKIVQETSFEKMKENPMTNRSTVSKSILDQSISSFMRKGTVGDWKNHFTVAQNERFDEIYRRKMEGTSINFCMEL
B2: Asp200Val: SULT1C1 polypeptide having a valine at amino acid 200 in place of an aspartic acid (protein)
chain: B1 chain with A60D, D200V
B3: Asp200Val/ Thr239Ala: double variant SULT1C1 polypeptide with a valine at amino acid 200 and an alanine at amino acid 239 (protein)
chain: B1 chain with A60D, D200V, T239A
B4: Arg73Gln: SULT1C1 polypeptide having a glutamine at amino acid residue 73 in place of an arginine (protein)
chain: B1 chain with A60D, R73Q
B5: Ser255Ala: SULT1C1 polypeptide having an alanine at amino acid 255 in place of a serine (protein)
chain: B1 chain with A60D, S255A
B6: Phe193Leu: SULT1C1 polypeptide having a leucine residue at amino acid 193 in place of a phenylalanine (protein)
chain: B1 chain with A60D, F193L
B7: Thr239Ala: SULT1C1 polypeptide having an alanine at amino acid 239 in place of a threonine (protein)
chain: B1 chain with A60D, T239A
B8: wild type: reference human SULT1C1 polypeptide (SEQ ID NO:2, GenBank U66036), recombinantly expressed in COS-1 cells (protein, listed as Homo sapiens)
chain: B1 chain with A60D
B9: Ser111Phe: SULT1C1 polypeptide having a phenylalanine at amino acid 111 in place of a serine (protein)
chain: B1 chain with A60D, S111F

Where a chain is given by its changes, count along the chain named.

One series deals with SULT1C1. In words: SULT1C1 enzyme activity assay: sulfate conjugation of 4-nitrophenol with 35S-PAPS, COS-1 cytosol of recombinant allozymes. The class given is biochemical, human. Conditions: apparent Km for PAPS, in the presence of 10 mM 4-NP, six PAPS concentrations 0.0625 μM to 2 μM. On the procedure: In some embodiments, activity of SULT1C1 polypeptides is altered relative to the reference SULT1C1. […] Other allozymes can have increased activity relative to the reference SULT1C1. Activity of SULT1C1 polypeptides can be assessed in vitro using a sulfate acceptor substrate such as 4-nitrophenol (4-NP, Sigma Chemical Co., St. Louis, Mo.) and a donor sulfate molecule such as PAPS. In general, recombinant SULT1C1 polypeptides can be incubated at 37° C. with 10 mM of sulfate acceptor substrate in a potassium phosphate buffer (5 mM, pH 7.4) and 0.4 μM labeled PAPS (e.g., ^35S-PAPS from New England Nuclear Life Science Products, Inc., Boston Mass.). Reactions can be stopped by precipitating PAPS and SULT1C1 polypeptide (e.g., with barium hydroxide, barium acetate, and zinc sulfate). After centrifugation of the reaction, radioactivity in the supernatant is assessed. SULT1C1 activity is expressed as nmoles of sulfate conjugated product formed per hour of incubation. See, Campbell, N. R. C. et al., Biochem. Pharmacol., 36:1435-1446 (1987).
Other biochemical properties of allozymes, such as apparent Km values, also can be altered relative to the reference SULT1C1. Apparent Km values can be calculated, for example, by using the method of Wilkinson with a computer program written by Cleland. Wilkinson, Biochem. J., 80:324-332 (1961); and Cleland, Nature, 198:463-365 (1963). As described herein, the apparent Km values for PAPS vary 7-fold among the allozymes tested (Asp60Ala, Arg73Gln, Phe193Leu, Asp200Val, Thr239Ala, and Ser255Ala).
COS-1 Cell Expression: Nine different SULT1C1 expression constructs were made using the p91023(B) expression vector. See, Wong et al., Science (1985) 228:810-815, for a description of the p91023(B) vector. Eight of the constructs were designed to express variant SULT1C1 polypeptides, while the remaining construct was designed to express a wild type SULT1C1. All SULT1C1 cDNA sequences used to create the expression constructs were created by site directed mutagenesis using the method described by Ho et al., Gene (1989) 77(l):51-9. Each SULT1C1 cDNA was amplified by PCR and subcloned into the EcoRI restriction site of the eukaryotic expression vector p91023(B). After subcloning, all inserts were sequenced to assure that no spurious nucleotide point mutations had been introduced during the PCR amplifications. […] As a control, a transfection was also performed with “empty” p91023(B), i.e., vector lacking an insert, to make it possible to correct for endogenous COS-1 cell SULT activity. The control plasmid pSV-β-galactosidase (Promega, Madison, Wis.) was cotransfected with each SULT1C1 construct to make it possible to correct for transfection efficiency. Two independent transfections, each consisting of three separate plates, were performed with each of the expression constructs. After 48 hours in culture, the transfected cells were harvested and high speed supernatant (HSS) cytosol preparations were prepared as described by Wood, T. C. et al., Biochem. Biophys. Res. Commun., 198:1119-1127 (1994). Aliquots of these cytosol preparations were stored at −80° C. prior to assay.
Enzyme Assays: β-galactosidase activity in each of the COS-1 HSS preparations was measured with the β-galactosidase Enzyme Assay System (Promega, Madison, Wis.). SULT1C1 enzyme activity was measured with an assay that involves sulfate conjugation of a sulfate acceptor substrate, 4-nitrophenol (4-NP), in the presence of [^35S]-3′-phosphoadenosine-5′-phosphosulfate (PAPS), the sulfate donor for the reaction. See, Campbell, N. R. C. et al., Biochem. Pharmacol., 36:1435-1446 (1987). The HSS preparations of recombinant SULT1C1 variant proteins described above were used for the activity studies without any further purification. The protein concentration of each recombinant protein preparation was determined by the dye-binding method of Bradford with bovine serum albumin (BSA) as a standard. […]
Regarding B1, the Michaelis constant (Km) (commonly the substrate concentration at which the rate is half of its maximum) was 4 ± 0.47 µM.

B2: the Km was 1.2 ± 0.12 µM.

Turning to B3, the Km was determined as 1.82 ± 0.14 µM.

Consider B4, for which the Km turned out to be 0.57 ± 0.15 µM.

B5: the Km came out at 0.56 ± 0.06 µM.

For B6, the Km came out at 2.95 ± 0.27 µM.

For B7, the Km was 1.14 ± 0.11 µM.

As for B8, the Km was found to be 0.77 ± 0.04 µM.

The series is the same for the next values; noted with them: recombinant allozyme in COS-1 cytosol; 10 mM 4-NP, 0.4 μM 35S-PAPS, pH 7.4; percentage of wild type SULT1C1 enzyme activity.
For B1, the “% WT activity” value amounted to 13.9 ± 0.3%.

In the case of B2, the “% WT activity” value was found to be 48.1 ± 4.2%.

In the case of B3, the “% WT activity” value came to 49.3 ± 2.8%.

Turning to B4, the “% WT activity” value was determined as 14.5 ± 1.9%.

In the case of B5, the “% WT activity” value is listed as 98.9 ± 5.9%.

In the case of B6, the “% WT activity” value was 39.3 ± 1.4%.

For the molecule B9, the “% WT activity” value was found to be 0%.

As to B7, the “% WT activity” value is 52.6 ± 1.7%.

With B8, the “% WT activity” value amounted to 100%.

The same series, now with this note: statement in words.
B1: the “activity relative to the reference (wild type) SULT1C1” value (shortened to “activity relative to the reference”) is “reduced activity”.

For B2, the “activity relative to the reference” value is listed as “reduced activity”.

Take B3: the “activity relative to the reference” value is on record as “reduced activity”.

In the case of B4, the “activity relative to the reference” value is recorded as “reduced activity”.

Consider B5, for which the “activity relative to the reference” value is “comparable to the reference SULT1C1”.

B6: the “activity relative to the reference” value was “reduced activity”.

In the case of B9, the “activity relative to the reference” value was “reduced activity”.

On to B7, for which the “activity relative to the reference” value is on record as “reduced activity”.

Source of the values: US7541169B2, “Sulfotransferase sequence variants” (Mayo Foundation for Medical Education and Research, priority 2001, dated 2009).
